Here are results for one substance from doi:10.1101/520460.

Read-outs that look alike come from different tables or passages of the source.

For assay [1], the target named is paclitaxel stabilized microtubules (polymerized bovine brain tubulin) (bovine) (UniProt Q6B856). The experiment in a line: co-sedimentation.
The target is the same in assay [2]. Nature of the assay: co-sedimentation. This is another data set of the same source.
Assay [3] has the same target. The experiment in a line: co-sedimentation. This is another data set of the same source.
The target in assay [4] is subtilisin-treated microtubules (C-terminal tails of α- and β-tubulin removed) (bovine) (UniProt Q6B856).
subtilisin-treated microtubules (C-terminal tails of α- and β-tubulin removed) (bovine), sequence (Q6B856 whole entry, looked up): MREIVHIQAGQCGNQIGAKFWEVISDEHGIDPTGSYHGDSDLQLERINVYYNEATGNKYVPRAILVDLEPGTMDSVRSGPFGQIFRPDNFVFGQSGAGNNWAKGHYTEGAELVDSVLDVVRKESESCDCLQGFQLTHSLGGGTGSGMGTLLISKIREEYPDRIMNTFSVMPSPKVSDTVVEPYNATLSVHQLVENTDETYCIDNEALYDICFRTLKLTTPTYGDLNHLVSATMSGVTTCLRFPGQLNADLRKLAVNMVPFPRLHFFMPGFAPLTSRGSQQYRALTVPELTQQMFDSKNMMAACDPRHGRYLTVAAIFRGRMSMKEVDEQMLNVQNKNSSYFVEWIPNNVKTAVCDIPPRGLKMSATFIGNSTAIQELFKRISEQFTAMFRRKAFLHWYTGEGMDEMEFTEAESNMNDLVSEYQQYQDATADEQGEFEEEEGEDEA

paclitaxel stabilized microtubules (polymerized bovine brain tubulin) (bovine), sequence (Q6B856 whole entry, looked up): as above

For orientation: Kd means the concentration at which binding is half-saturated. Lower therefore signals higher affinity. As for “catalytic domain plus the putative neck linker of human kinesin-like DNA-binding protein (KID), Gly5-Leu379 (domain or fragment)”, the Kd in assay [1] was 110 nM; in assay [2] it was 500 nM; in assay [3] it was 160 nM. In addition, the K0.5,S-MT of the steady-state ATPase on subtilisin treated microtubules in assay [4] turned out to be 1.1 µM.
